Earlier results in article PMC3557855.
pKd: −log10 of the molar value. Each block holds one substance with its values, some of them ahead of it.

Columns and labels:
Assay in all cases: SPR
ESL-1 = ESL-1 (UniProt Q61543)
PSGL-1 (Homo sapiens) = PSGL-1 (Homo sapiens) (UniProt Q14242)
GlyCAM-1 (Mus musculus) = GlyCAM-1 (Mus musculus) (UniProt Q02596)
UniProt Q02596, sequence (Q02596 20-151): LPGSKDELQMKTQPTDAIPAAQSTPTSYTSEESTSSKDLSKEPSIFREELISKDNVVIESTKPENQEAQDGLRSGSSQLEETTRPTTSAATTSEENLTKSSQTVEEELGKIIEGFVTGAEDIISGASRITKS

UniProt Q14242, sequence (Q14242 42-320): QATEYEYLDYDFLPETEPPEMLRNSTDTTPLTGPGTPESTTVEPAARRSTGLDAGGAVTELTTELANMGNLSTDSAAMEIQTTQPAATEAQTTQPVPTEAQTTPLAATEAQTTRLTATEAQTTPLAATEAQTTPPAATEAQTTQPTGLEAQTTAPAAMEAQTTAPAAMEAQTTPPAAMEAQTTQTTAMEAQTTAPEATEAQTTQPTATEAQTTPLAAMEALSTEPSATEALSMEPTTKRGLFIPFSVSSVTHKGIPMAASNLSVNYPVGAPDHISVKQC
UniProt Q61543, sequence (Q61543 28-1141): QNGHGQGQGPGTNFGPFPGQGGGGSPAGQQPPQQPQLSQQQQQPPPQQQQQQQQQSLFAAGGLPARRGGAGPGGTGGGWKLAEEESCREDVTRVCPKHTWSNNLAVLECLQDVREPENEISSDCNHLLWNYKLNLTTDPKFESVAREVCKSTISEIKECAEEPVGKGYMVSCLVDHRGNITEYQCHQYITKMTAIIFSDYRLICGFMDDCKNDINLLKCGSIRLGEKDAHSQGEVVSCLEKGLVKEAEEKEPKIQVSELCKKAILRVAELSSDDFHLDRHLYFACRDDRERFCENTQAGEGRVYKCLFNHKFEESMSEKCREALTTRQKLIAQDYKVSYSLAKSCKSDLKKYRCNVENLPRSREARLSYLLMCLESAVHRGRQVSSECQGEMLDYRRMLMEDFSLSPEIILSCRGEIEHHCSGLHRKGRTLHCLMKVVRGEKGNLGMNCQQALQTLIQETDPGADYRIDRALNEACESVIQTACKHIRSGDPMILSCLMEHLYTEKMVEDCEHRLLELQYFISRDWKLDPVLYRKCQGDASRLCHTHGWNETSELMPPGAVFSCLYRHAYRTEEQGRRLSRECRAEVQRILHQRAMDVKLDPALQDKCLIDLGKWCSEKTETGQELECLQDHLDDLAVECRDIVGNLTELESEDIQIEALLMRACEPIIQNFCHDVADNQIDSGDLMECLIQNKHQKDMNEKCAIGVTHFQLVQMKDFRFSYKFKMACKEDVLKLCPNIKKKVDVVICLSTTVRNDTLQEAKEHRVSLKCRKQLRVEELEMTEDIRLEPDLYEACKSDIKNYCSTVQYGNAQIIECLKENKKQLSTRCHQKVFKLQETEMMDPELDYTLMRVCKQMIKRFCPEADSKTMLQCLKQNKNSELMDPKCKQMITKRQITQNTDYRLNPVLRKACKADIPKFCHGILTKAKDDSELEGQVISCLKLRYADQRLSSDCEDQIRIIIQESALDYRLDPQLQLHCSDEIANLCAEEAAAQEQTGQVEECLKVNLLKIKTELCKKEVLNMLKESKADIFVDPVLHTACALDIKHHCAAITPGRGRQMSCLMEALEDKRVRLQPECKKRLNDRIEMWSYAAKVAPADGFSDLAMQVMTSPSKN

- pKd (ESL-1): 4.21
Substance: E-selectin (from UniProt P16581)

- pKd (PSGL-1 (Homo sapiens)): 4.33
Substance: L-selectin (from UniProt P14151)

- pKd (GlyCAM-1 (Mus musculus)): 3.97
Substance: L-selectin (from UniProt P18337)
